According to US20250326843A1 (published 2025):

T1: murine B7-H4 (murine, UniProt Q7TSP5 25-257)
T1 chain: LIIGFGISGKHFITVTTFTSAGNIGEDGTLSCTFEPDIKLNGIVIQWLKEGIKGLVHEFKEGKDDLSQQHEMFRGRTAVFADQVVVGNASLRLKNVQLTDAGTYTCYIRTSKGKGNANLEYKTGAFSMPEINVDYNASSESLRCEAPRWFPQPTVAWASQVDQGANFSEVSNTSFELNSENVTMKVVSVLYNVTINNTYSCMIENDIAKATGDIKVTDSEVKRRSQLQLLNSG

T2: cynomolgus monkey B7-H4 (cynomolgus monkey, UniProt A0A2K5U6P5 25-282)
T2 chain: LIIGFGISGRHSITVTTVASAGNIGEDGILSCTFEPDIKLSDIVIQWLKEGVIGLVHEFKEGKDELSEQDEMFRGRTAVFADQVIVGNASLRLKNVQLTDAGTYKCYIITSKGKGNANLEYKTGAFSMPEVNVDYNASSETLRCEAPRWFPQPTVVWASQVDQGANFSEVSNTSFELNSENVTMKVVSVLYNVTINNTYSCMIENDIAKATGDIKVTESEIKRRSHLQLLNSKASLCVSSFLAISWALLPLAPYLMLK

T3: human B7-H4 (human, UniProt Q7Z7D3 25-282)
T3 chain: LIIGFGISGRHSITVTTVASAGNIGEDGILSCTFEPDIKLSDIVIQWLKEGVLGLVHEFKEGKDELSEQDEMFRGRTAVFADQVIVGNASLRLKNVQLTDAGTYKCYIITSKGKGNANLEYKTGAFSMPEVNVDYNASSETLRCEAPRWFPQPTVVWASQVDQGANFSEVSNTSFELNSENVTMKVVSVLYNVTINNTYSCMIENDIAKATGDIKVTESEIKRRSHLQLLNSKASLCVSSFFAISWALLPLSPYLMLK


Tests used:
human 4-1BB = human 4-1BB (human, UniProt Q07011 24-255); experiment: flow cytometry
human 4-1BB, sequence (Q07011 24-255): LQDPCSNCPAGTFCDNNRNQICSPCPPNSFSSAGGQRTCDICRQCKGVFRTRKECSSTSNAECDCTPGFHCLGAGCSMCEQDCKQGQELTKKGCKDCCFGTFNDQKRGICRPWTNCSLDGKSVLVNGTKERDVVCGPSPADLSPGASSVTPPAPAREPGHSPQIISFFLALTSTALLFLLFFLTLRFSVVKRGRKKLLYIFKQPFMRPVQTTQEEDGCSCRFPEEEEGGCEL

CD3 on human T cells = CD3 on human T cells (human, UniProt P07766 23-207); experiment: flow cytometry; T cells
CD3 on human T cells, sequence (P07766 23-207): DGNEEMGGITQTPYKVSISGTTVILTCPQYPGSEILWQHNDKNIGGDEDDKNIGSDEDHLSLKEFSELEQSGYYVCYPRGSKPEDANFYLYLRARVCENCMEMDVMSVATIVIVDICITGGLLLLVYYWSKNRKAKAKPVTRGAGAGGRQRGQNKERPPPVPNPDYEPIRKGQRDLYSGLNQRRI

murine B7-H4 = target: T1, murine B7-H4; experiment: flow cytometry; CHO-K1/m B7H4 cells
cynomolgus monkey B7-H4 = target: T2, cynomolgus monkey B7-H4; experiment: flow cytometry; CHO-K1/cyno B7H4 cells
human B7-H4 = target: T3, human B7-H4; experiment: flow cytometry; CHO-K1/hu B7H4 cells

Row | EC50 (human 4-1BB) [nM] | EC50 (CD3 on human T cells) [nM] | EC50 (murine B7-H4) [nM] | EC50 (cynomolgus monkey B7-H4) [nM] | EC50 (human B7-H4) [nM] | Binder
1 | 1.63 |  |  |  |  | Urelumab (antibody, V domains shown) VH: QVQLQQWGAGLLKPSETLSLTCAVYGGSFSGYYWSWIRQSPEKGLEWIGEINHGGYVTYNPSLESRVTISVDTSKNQFSLKLSSVTAADTAVYYCARDYGPGNYDWYFDLWGRGTLVTVSS VL: EIVLTQSPATLSLSPGERATLSCRASQSVSSYLAWYQQKPGQAPRLLIYDASNRATGIPARFSGSGSGTDFTLTISSLEPEDFAVYYCQQRSNWPPALTFGGGTKVEIK
2 |  | ~59.3 | ~250 | 5.83 | 7.7 | B7-H4×CD3 bispecific antibody PR003733 (bispecific antibody) light: QAVVTQEPSLTVSPGGTVTLTCRSSTGAVTTSNYANWVQQKPGQAPRGLIGGTNKRAPWTPARFSGSLLGDKAALTLLGAQPEDEAEYFCALWYSNLWVFGGGTKLTVLGQPKAAPSVTLFPPSSEELQANKATLVCLISDFYPGAVTVAWKADSSPVKAGVETTTPSKQSNNKYAASSYLSLTPEQWKSHRSYSCQVTHEGSTVEKTVAPTECS heavy: not shown EIVMTQSPASLSVSPGERATLSCRASQSVSSNLAWYQQKPGQAPRLLIYGASTRATGIPARVSGGGSGTEFTLTISSLQSEDFAVYYCQQYKNWPFTFGPGTKLEIKGGGGSGGGGSGGGGSGGGGSQVQLVQSGAEVKKPGSSMRVSCKASEDTFSSYAISWVRQAPGQGLEWMGGTAPIFGTTNYAQKFQGRVTITADKSTSTAYMELSSLRSEDTAVYYCARGGPYFDYWGQGTLVTVSSASEPKSSDKTHTCPPCPAPEAAGGPSVFLFPPKPKDTLMISRTPEVTCVVVDVSHEDPEVKFNWYVDGVEVHNAKTKPREEQYNSTYRVVSVLTVLHQDWLNGKEYKCKVSNKALPAPIEKTISKAKGQPREPQVCTLPPSREEMTKNQVSLSCAVKGFYPSDIAVEWESNGQPENNYKTTPPVLDSDGSFFLVSKLTVDKSRWQQGNVFSCSVMHEALHNHYTQKSLSLSPGK
3 |  | ~201 | ~62.5 | 4.96 | 6.06 | B7-H4×CD3 bispecific antibody PR003899 (bispecific antibody) light: QAVVTQEPSLTVSPGGTVTLTCRSSTGAVTTSNYANWVQQKPGQAPRGLIGGTNKRAPWTPARFSGSLLGDKAALTLLGAQPEDEAEYFCALWYSNLWVFGGGTKLTVLGQPKAAPSVTLFPPSSEELQANKATLVCLISDFYPGAVTVAWKADSSPVKAGVETTTPSKQSNNKYAASSYLSLTPEQWKSHRSYSCQVTHEGSTVEKTVAPTECS heavy: not shown EIVMTQSPASLSVSPGERATLSCRASQSVSSNLAWYQQKPGQAPRLLIYGASTRATGIPARVSGGGSGTEFTLTISSLQSEDFAVYYCQQYKNWPFTFGPGTKLEIKGGGGSGGGGSGGGGSGGGGSQVQLVQSGAEVKKPGSSMRVSCKASEDTFSSYAISWVRQAPGQGLEWMGGTAPIFGTTNYAQKFQGRVTITADKSTSTAYMELSSLRSEDTAVYYCARGGPYFDYWGQGTLVTVSSASEPKSSDKTHTCPPCPAPEAAGGPSVFLFPPKPKDTLMISRTPEVTCVVVDVSHEDPEVKFNWYVDGVEVHNAKTKPREEQYNSTYRVVSVLTVLHQDWLNGKEYKCKVSNKALPAPIEKTISKAKGQPREPQVCTLPPSREEMTKNQVSLSCAVKGFYPSDIAVEWESNGQPENNYKTTPPVLDSDGSFFLVSKLTVDKSRWQQGNVFSCSVMHEALHNHYTQKSLSLSPGK
